The subject of series [1] is HeLa Kyoto. Description: melting temperature (median over replicates), in situ; higher = more thermally stable.
Series [2] has as its system HeLa Kyoto. Description: solubility change mitosis vs G1/S (difference of NP-40 vs SDS log2 ratios) (log2 ratio difference); higher = more soluble in mitosis.
Series [3] concerns HeLa Kyoto. Description: solubility in G1/S (NP-40 vs SDS abundance) (log2 ratio); higher = more soluble. The settings on record: cell cycle stage: G1/S.
Series [4] concerns HeLa Kyoto. Description: thermal stability score vs G1/S (z-score of summed log2 fold changes over temperatures); higher = more thermally stable than in G1/S.
Where [5] appears, read: cell cycle stage: early G1 (4.5 h after nocodazole release).
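Wherever melting temperature (median over replicates), in situ is given: HeLa Kyoto cells synchronized by double thymidine or nocodazole block, proteins quantified by TMT10plex mass spectrometry, three independent biological replicates.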
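Wherever solubility change mitosis vs G1/S (difference of NP-40 vs SDS log2 ratios) is given: synchronized HeLa Kyoto cells (double thymidine block for G1/S, nocodazole release for mitosis), protein amounts in NP-40 versus SDS lysates quantified by mass spectrometry, three biological replicates.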
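Wherever solubility in G1/S (NP-40 vs SDS abundance) is given: HeLa Kyoto cells arrested at G1/S by double thymidine block, proteins quantified by TMT10plex mass spectrometry in mild NP-40 versus SDS extracts, three biological replicates.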
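Wherever thermal stability score vs G1/S (z-score of summed log2 fold changes over temperatures) is given: synchronized HeLa Kyoto cells, proteins quantified by TMT10plex mass spectrometry, three biological replicates, mitosis taken 0.5 h after nocodazole release, G1/S directly after double thymidine block.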

For the sequence “MSAPDEGRRDPPKPKGKTLGSFFGSLPGFSSARNLVANAHSSARARPAADPTGAPAAEAAQPQAQVAAHPEQTAPWTEKELQPSEKMVSGAKDLVCSKMSRAKDAVSSGVASVVDVAKGVVQGGLDTTRSALTGTKEVVSSGVTGAMDMAKGAVQGGLDTSKAVLTGTKDTVSTGLTGAVNVAKGTVQAGVDTTKTVLTGTKDTVTTGVMGAVNLAKGTVQTGVETSKAVLTGTKDAVSTGLTGAVNVARGSIQTGVDTSKTVLTGTKDTVCSGVTGAMNVAKGTIQTGVDTSKTVLTGTKDTVCSGVTGAMNVAKGTIQTGVDTSKTVLTGTKDTVCSGVTGAMNVAKGTIQTGVDTTKTVLTGTKNTVCSGVTGAVNLAKEAIQGGLDTTKSMVMGTKDTMSTGLTGAANVAKGAMQTGLNTTQNIATGTKDTVCSGVTGAMNLARGTIQTGVDTTKIVLTGTKDTVCSGVTGAANVAKGAVQGGLDTTKSVLTGTKDAVSTGLTGAVNVAKGTVQTGVDTTKTVLTGTKDTVCSGVTSAVNVAKGAVQGGLDTTKSVVIGTKDTMSTGLTGAANVAKGAVQTGVDTAKTVLTGTKDTVTTGLVGAVNVAKGTVQTGMDTTKTVLTGTKDTIYSGVTSAVNVAKGAVQTGLKTTQNIATGTKNTFGSGVTSAVNVAKGAAQTGVDTAKTVLTGTKDTVTTGLMGAVNVAKGTVQTSVDTTKTVLTGTKDTVCSGVTGAANVAKGAIQGGLDTTKSVLTGTKDAVSTGLTGAVKLAKGTVQTGMDTTKTVLTGTKDAVCSGVTGAANVAKGAVQMGVDTAKTVLTGTKDTVCSGVTGAANVAKGAVQTGLKTTQNIATGTKNTLGSGVTGAAKVAKGAVQGGLDTTKSVLTGTKDAVSTGLTGAVNLAKGTVQTGVDTSKTVLTGTKDTVCSGVTGAVNVAKGTVQTGVDTAKTVLSGAKDAVTTGVTGAVNVAKGTVQTGVDASKAVLMGTKDTVFSGVTGAMSMAKGAVQGGLDTTKTVLTGTKDAVSAGLMGSGNVATGATHTGLSTFQNWLPSTPATSWGGLTSSRTTDNGGEQTALSPQEAPFSGISTPPDVLSVGPEPAWEAAATTKGLATDVATFTQGAAPGREDTGLLATTHGPEEAPRLAMLQNELEGLGDIFHPMNAEEQAQLAASQPGPKVLSAEQGSYFVRLGDLGPSFRQRAFEHAVSHLQHGQFQARDTLAQLQDCFRLIEKAQQAPEGQPRLDQGSGASAEDAAVQEERDAGVLSRVCGLLRQLHTAYSGLVSSLQGLPAELQQPVGRARHSLCELYGIVASAGSVEELPAERLVQSREGVHQAWQGLEQLLEGLQHNPPLSWLVGPFALPAGGQ [PLIN4]”, the melting temperature turned out to be 52.4 °C with HeLa Kyoto [1] (cell cycle stage: G1/S) and 52.3 °C in the series with HeLa Kyoto [1] (cell cycle stage: mitosis). Moreover, in the series with HeLa Kyoto [2], the “solubility change mitosis (log2)” value was -0.0221. Moreover, the “solubility in G1/S (log2)” value in the series with HeLa Kyoto [3] amounted to 0.21. In addition, the thermal stability score in the series with HeLa Kyoto [4] (setting [5]) came to 1.29; in the series with HeLa Kyoto [4] (cell cycle stage: mitosis), 2.31.
On to “MSAPSEEEEYARLVMEAQPEWLRAEVKRLSHELAETTREKIQAAEYGLAVLEEKHQLKLQFEELEVDYEAIRSEMEQLKEAFGQAHTNHKKVAADGESREESLIQESASKEQYYVRKVLELQTELKQLRNVLTNTQSENERLASVAQELKEINQNVEIQRGRLRDDIKEYKFREARLLQDYSELEEENISLQKQVSVLRQNQVEFEGLKHEIKRLEEETEYLNSQLEDAIRLKEISERQLEEALETLKTEREQKNSLRKELSHYMSINDSFYTSHLHVSLDGLKFSDDAAEPNNDAEALVNGFEHGGLAKLPLDNKTSTPKKEGLAPPSPSLVSDLLSELNISEIQKLKQQLMQMEREKAGLLATLQDTQKQLEHTRGSLSEQQEKVTRLTENLSALRRLQASKERQTALDNEKDRDSHEDGDYYEVDINGPEILACKYHVAVAEAGELREQLKALRSTHEAREAQHAEEKGRYEAEGQALTEKVSLLEKASRQDRELLARLEKELKKVSDVAGETQGSLSVAQDELVTFSEELANLYHHVCMCNNETPNRVMLDYYREGQGGAGRTSPGGRTSPEARGRRSPILLPKGLLAPEAGRADGGTGDSSPSPGSSLPSPLSDPRREPMNIYNLIAIIRDQIKHLQAAVDRTTELSRQRIASQELGPAVDKDKEALMEEILKLKSLLSTKREQITTLRTVLKANKQTAEVALANLKSKYENEKAMVTETMMKLRNELKALKEDAATFSSLRAMFATRCDEYITQLDEMQRQLAAAEDEKKTLNSLLRMAIQQKLALTQRLELLELDHEQTRRGRAKAAPKTKPATPSL [BICD2]”, for which the melting temperature in the series with HeLa Kyoto [1] (cell cycle stage: G1/S) turned out to be 49.7 °C; in the series on HeLa Kyoto [1] (cell cycle stage: mitosis), 49.1 °C. Further, the “solubility change mitosis (log2)” value in the series with HeLa Kyoto [2] worked out at 0.0849. In the series on HeLa Kyoto [3], the “solubility in G1/S (log2)” value stood at 0.628. For the same sequence, the values for the thermal stability score in the series on HeLa Kyoto [4] (setting [5]) and in the series with HeLa Kyoto [4] (cell cycle stage: mitosis) were -0.115 and 0.199, respectively.
On to “MSASVVSVISRFLEEYLSSTPQRLKLLDAYLLYILLTGALQFGYCLLVGTFPFNSFLSGFISCVGSFILAVCLRIQINPQNKADFQGISPERAFADFLFASTILHLVVMNFVG [DAD1]”, for which the melting temperature was 54.5 °C in the series with HeLa Kyoto [1] (cell cycle stage: G1/S) and 54.2 °C in the series on HeLa Kyoto [1] (cell cycle stage: mitosis). In addition, the “solubility change mitosis (log2)” value with HeLa Kyoto [2] is -0.257. Also, the “solubility in G1/S (log2)” value in the series on HeLa Kyoto [3] is -0.0329. For the same sequence, the values for the thermal stability score with HeLa Kyoto [4] (setting [5]) and in the series with HeLa Kyoto [4] (cell cycle stage: mitosis) were 0.505 and -0.552, respectively.
For the sequence “MSCAGAAAAPRLWRLRPGARRSLSAYGRRTSVRFRSSGMTLDNISRAAVDRIIRVDHAGEYGANRIYAGQMAVLGRTSVGPVIQKMWDQEKDHLKKFNELMVTFRVRPTVLMPLWNVLGFALGAGTALLGKEGAMACTVAVEESIAHHYNNQIRTLMEEDPEKYEELLQLIKKFRDEELEHHDIGLDHDAELAPAYAVLKSIIQAGCRVAIYLSERL [COQ7]”, the melting temperature amounted to 56.1 °C with HeLa Kyoto [1] (cell cycle stage: G1/S) and 53.4 °C in the series with HeLa Kyoto [1] (cell cycle stage: mitosis). For the same sequence, the “solubility change mitosis (log2)” value with HeLa Kyoto [2] was -0.0504. Also, in the series with HeLa Kyoto [3], the “solubility in G1/S (log2)” value was -0.0496. In addition, the results for the thermal stability score in the series with HeLa Kyoto [4] (setting [5]) and in the series on HeLa Kyoto [4] (cell cycle stage: mitosis) were -2.12 and -0.639, respectively.
For the sequence “MSCPVPACCALLLVLGLCRARPRNALLLLADDGGFESGAYNNSAIATPHLDALARRSLLFRNAFTSVSSCSPSRASLLTGLPQHQNGMYGLHQDVHHFNSFDKVRSLPLLLSQAGVRTGIIGKKHVGPETVYPFDFAYTEENGSVLQVGRNITRIKLLVRKFLQTQDDRPFFLYVAFHDPHRCGHSQPQYGTFCEKFGNGESGMGRIPDWTPQAYDPLDVLVPYFVPNTPAARADLAAQYTTVGRMDQGVGLVLQELRDAGVLNDTLVIFTSDNGIPFPSGRTNLYWPGTAEPLLVSSPEHPKRWGQVSEAYVSLLDLTPTILDWFSIPYPSYAIFGSKTIHLTGRSLLPALEAEPLWATVFGSQSHHEVTMSYPMRSVQHRHFRLVHNLNFKMPFPIDQDFYVSPTFQDLLNRTTAGQPTGWYKDLRHYYYRARWELYDRSRDPHETQNLATDPRFAQLLEMLRDQLAKWQWETHDPWVCAPDGVLEEKLSPQCQPLHNEL [SGSH]”, the melting temperature turned out to be 53.5 °C in the series on HeLa Kyoto [1] (cell cycle stage: G1/S) and 58 °C in the series on HeLa Kyoto [1] (cell cycle stage: mitosis). The “solubility change mitosis (log2)” value in the series on HeLa Kyoto [2] is -0.261. Moreover, the “solubility in G1/S (log2)” value with HeLa Kyoto [3] came out at 0.401. Also, the thermal stability score is -1.28 with HeLa Kyoto [4] (setting [5]) and -1.81 in the series on HeLa Kyoto [4] (cell cycle stage: mitosis).
